Assay results from PMC9915769, “A novel binding site on the cryptic intervening domain is a motif-dependent regulator of O-GlcNAc transferase” (Research Square, 2023).
Values belong to the molecule of their own block, whether it stands above or below them. Non-standard residues stand in square brackets, D forms with d. No end group written: not given here. pY = N[C@@H](Cc1ccc(OP(=O)(O)O)cc1)C(=O)O

What was measured:
[1] = target: fluorescently labeled 5-FAM-SMG9 peptide (human) (UniProt Q9H0W8); test: fluorescence polarisation; saturation: 2-fold serial dilutions of OGT (WT or mutant) plus equal volume of 0.4 uM 5-FAM-SMG9; TBS (150 mM NaCl, 20 mM Tris-HCl, pH 8.0); 20 min, room temperature
OGT = target: T1, OGT (Homo sapiens, UniProt O15294); test: Competitive fluorescence polarization (FP) binding assay with 5-FAM-SMG9 peptide; details: FP competition with 5-FAM-SMG9 for OGT binding, TBS pH 8.0, n=3
T1 construct: two OGT constructs, full-length OGT (OGT) and the protein crystallization construct OGT4.5; His6 (N); made in house; host or cells: E. coli BL21(DE3)
T1 sequence (O15294 1-1046): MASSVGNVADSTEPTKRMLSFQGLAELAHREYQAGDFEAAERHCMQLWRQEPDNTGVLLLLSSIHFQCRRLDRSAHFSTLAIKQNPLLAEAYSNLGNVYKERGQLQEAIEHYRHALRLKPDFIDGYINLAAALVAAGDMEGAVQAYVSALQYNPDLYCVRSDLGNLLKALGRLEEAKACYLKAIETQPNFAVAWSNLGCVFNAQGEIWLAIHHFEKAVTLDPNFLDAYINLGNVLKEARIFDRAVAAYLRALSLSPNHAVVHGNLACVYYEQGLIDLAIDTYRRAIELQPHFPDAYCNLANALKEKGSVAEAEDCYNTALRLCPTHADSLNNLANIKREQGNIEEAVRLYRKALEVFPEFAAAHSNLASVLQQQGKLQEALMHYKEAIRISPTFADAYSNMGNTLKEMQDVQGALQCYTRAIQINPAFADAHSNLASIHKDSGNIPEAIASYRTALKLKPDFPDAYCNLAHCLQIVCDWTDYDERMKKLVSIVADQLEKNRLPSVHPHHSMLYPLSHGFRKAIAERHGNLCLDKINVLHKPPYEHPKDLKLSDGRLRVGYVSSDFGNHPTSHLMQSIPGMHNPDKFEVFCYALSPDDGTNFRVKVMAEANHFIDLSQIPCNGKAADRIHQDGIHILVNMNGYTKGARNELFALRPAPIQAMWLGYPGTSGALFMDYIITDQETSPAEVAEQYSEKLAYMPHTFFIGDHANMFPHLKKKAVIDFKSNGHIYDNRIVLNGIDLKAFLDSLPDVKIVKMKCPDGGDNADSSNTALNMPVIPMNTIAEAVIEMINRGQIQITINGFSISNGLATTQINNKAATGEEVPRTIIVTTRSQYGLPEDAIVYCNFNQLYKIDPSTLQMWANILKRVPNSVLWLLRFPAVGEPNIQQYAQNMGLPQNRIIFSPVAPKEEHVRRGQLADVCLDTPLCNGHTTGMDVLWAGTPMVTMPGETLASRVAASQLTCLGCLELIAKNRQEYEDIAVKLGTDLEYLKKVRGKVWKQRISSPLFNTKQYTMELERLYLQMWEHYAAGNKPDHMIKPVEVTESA
Procedure: (§1) All FP measurements were carried out in black small volume 384-well plates (Greiner Bio-One). For saturation binding assays, 2-fold serial dilutions of recombinantly purified OGT were prepared in TBS (150 mM NaCl, 20 mM Tris-HCl, pH 8.0). 5-FAM-SMG9 fluorescent peptide at 0.4 μM in TBS was added in equal volume to the OGT dilution series. For competition binding assays, 2-fold serial dilutions of unlabeled peptide were prepared in TBS. An equal volume of 20 μM OGT with 0.4 μM 5-FAM-SMG9 in TBS was added to the dilution series. After 20 min incubation in the dark at room temperature, FP was read on a BMG PheraStar multimode plate reader equipt with 488, 520, 520 FP filter cube (BMG Labtech).

OGT I734R = test: Saturation FP binding assay, OGT mutant I734R; set-up: species or system Human; details: 5-FAM-SMG9 0.4 μM stock mixed 1:1, TBS pH 8.0, n=3
Text: (§2) To confirm the SMG9 peptide binding mode in our crystal structure, we mutated each of the two primary binding features: the hydrophobic pocket (F723, I734, and I787) and the bidentate donor N791, and measured their changes in binding affinity for SMG9 peptide. Each of the hydrophobic OGT residues were mutated to a glutamate or arginine, while the asparagine bidentate interaction was disrupted by mutation to alanine. Each mutated OGT construct was recombinantly expressed in E coli and purified at high concentration for FP saturation binding assays with fluorescent SMG9 peptide. Insertion of charged residues into the hydrophobic pocket (F723E, I734R, I787E, and I787R) as well as disruption of the bidentate backbone interaction (N791 A) each shifted EC50 values by >10-fold (Fig. 2d, Extended data Fig. 3a), showing that these mutations substantially disrupt SMG9 peptide binding.
as §1, with “For competition binding assays, 2-fold serial dilutions of unlabeled peptide were prepared in TBS. An equal volume of 20 μM OGT with 0.4 μM 5-FAM-SMG9 in TBS was added to the dilution series.” left out

OGT F723E = test: Saturation FP binding assay, OGT mutant F723E; set-up: species or system Human; details: 5-FAM-SMG9 0.4 μM stock mixed 1:1, TBS pH 8.0, n=3
Text: as §2
as §1, with “For competition binding assays, 2-fold serial dilutions of unlabeled peptide were prepared in TBS. An equal volume of 20 μM OGT with 0.4 μM 5-FAM-SMG9 in TBS was added to the dilution series.” left out

OGT I787E = test: Saturation FP binding assay, OGT mutant I787E; set-up: species or system Human; details: 5-FAM-SMG9 0.4 μM stock mixed 1:1, TBS pH 8.0, n=3
Text: as §2
as §1, with “For competition binding assays, 2-fold serial dilutions of unlabeled peptide were prepared in TBS. An equal volume of 20 μM OGT with 0.4 μM 5-FAM-SMG9 in TBS was added to the dilution series.” left out

OGT N791A = test: Saturation FP binding assay, OGT mutant N791A; set-up: species or system Human; details: 5-FAM-SMG9 0.4 μM stock mixed 1:1, TBS pH 8.0, n=3
Text: as §2
as §1, with “For competition binding assays, 2-fold serial dilutions of unlabeled peptide were prepared in TBS. An equal volume of 20 μM OGT with 0.4 μM 5-FAM-SMG9 in TBS was added to the dilution series.” left out

OGT I787R = test: Saturation FP binding assay, OGT mutant I787R; set-up: species or system Human; details: 5-FAM-SMG9 0.4 μM stock mixed 1:1, TBS pH 8.0, n=3
Text: as §2
as §1, with “For competition binding assays, 2-fold serial dilutions of unlabeled peptide were prepared in TBS. An equal volume of 20 μM OGT with 0.4 μM 5-FAM-SMG9 in TBS was added to the dilution series.” left out

[2] = target: T2, full-length O-GlcNAc transferase (OGT), recombinant (human, UniProt O15294-3 1-1036); test: MST
T2 chain: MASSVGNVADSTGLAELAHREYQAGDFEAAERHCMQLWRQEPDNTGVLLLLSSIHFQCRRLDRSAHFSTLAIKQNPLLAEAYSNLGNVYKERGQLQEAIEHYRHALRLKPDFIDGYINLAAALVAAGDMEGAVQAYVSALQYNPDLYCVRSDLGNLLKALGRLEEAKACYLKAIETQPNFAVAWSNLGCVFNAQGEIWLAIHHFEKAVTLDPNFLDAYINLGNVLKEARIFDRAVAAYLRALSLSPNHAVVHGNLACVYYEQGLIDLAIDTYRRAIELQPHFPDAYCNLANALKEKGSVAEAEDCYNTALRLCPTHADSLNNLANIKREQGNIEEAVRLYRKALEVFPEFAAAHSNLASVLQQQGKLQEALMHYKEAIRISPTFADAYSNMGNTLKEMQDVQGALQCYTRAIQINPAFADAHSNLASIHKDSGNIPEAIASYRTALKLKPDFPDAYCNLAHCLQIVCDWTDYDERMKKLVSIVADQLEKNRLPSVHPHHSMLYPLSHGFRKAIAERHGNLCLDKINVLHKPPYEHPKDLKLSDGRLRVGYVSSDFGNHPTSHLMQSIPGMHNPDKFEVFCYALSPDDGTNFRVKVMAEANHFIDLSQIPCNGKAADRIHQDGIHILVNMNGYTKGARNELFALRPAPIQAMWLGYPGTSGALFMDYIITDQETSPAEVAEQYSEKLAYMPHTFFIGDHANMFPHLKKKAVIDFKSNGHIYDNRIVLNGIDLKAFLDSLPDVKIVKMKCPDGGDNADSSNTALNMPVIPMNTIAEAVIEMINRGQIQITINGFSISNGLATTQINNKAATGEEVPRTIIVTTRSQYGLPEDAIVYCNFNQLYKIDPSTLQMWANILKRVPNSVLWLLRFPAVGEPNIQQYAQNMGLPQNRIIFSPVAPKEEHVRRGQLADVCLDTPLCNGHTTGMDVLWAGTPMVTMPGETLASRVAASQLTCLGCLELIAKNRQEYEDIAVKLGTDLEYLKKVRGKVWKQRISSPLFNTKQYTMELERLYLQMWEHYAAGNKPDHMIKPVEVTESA

Molecule: OGT I734R, recombinant (enzyme)
fold shift in EC50 against wild-type OGT [1]: > 10 fold

Molecule: SMG9 Y147F: SMG9 peptide with Y147F mutation (QRPTQPVFQIQNRGMG)
fold shift in EC50 relative to WT SMG9 peptide (OGT): > 10 fold

Molecule: OGT F723E, recombinant (enzyme)
fold shift in EC50 against wild-type OGT [1]: > 10 fold

B1: fluorescently labeled 5-FAM-SMG9 peptide (peptide, UniProt Q9H0W8 140-155, looked up)
peptide: QRPTQPVYQIQNRGMG
modifications: not fully specified (N-terminus); also: 5-FAM label, position not given here
notes: SMG9, human, 16-mer peptide with the PxYx[I/L] motif, residues 140-155 as stated for the SMG9 peptide; The limits 140-155 are printed for the SMG9 peptide of the crystal; the labelled peptide bears the same name; also called fluorescent SMG9 peptide; source: synthetic peptide (solid phase peptide synthesis, Ontores)
Kd [2]: 13.1 µM

Second part, the molecule after the results:

fold shift in EC50 against wild-type OGT [1]: > 10 fold
Molecule: OGT N791A, recombinant (enzyme)

fold shift in EC50 relative to wild-type OGT (OGT I734R): > 10 fold | fold shift in EC50 relative to wild-type OGT (OGT F723E): > 10 fold | fold shift in EC50 relative to wild-type OGT (OGT I787E): > 10 fold | fold shift in EC50 relative to wild-type OGT (OGT N791A): > 10 fold | fold shift in EC50 relative to wild-type OGT (OGT I787R): > 10 fold
Molecule: 5-FAM-SMG9 peptide: fluorescently labeled 5-FAM SMG9 peptide, probe for MST and FP assays (QRPTQPVYQIQNRGMG; not fully specified (N-terminus); also: 5-FAM label, position not given here)

fold shift in EC50 against wild-type OGT [1]: > 10 fold
Molecule: OGT I787R, recombinant (from UniProt O15294-3 1-1036) (enzyme)

fold shift in EC50 against wild-type OGT [1]: > 10 fold
Molecule: OGT I787E, recombinant (from UniProt O15294-3 1-1036) (enzyme)

peptide binding to OGT (FP competition) (OGT): significantly disrupted peptide binding
Molecule: SMG9 pY147: phosphorylated SMG9 peptide (pY147) (QRPTQPV[pY]QIQNRGMG)
